Patent US20260274955A1 (JANUX THERAPEUTICS, published 2026)

Columns and labels:
[1] = molecular target: anti-CD28 Fab (SEQ ID NOs: 202, 203); assay: phage ELISA, Fab on plate;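 note: ELISA of crude clonal phage supernatants on the plate, wells preloaded with CD28 antigen or only blocking buffer, captured phage read out via HRP-linked anti-M13 antibody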
Target sequence in this assay (VH, as listed by the source, chain 1 of 2): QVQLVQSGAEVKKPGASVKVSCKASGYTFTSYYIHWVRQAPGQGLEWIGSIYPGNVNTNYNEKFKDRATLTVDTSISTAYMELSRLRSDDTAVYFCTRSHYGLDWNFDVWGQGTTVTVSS
Target sequence in this assay (VL, as listed by the source, chain 2 of 2): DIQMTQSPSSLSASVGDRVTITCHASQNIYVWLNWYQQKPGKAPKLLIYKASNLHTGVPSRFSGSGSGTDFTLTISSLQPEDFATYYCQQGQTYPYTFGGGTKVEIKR

[2] = molecular target: T1, anti-CD28 Fab (SEQ ID NOs: 202, 203); assay: phage binding ELISA; Fab wells pre-incubated with CD28 antigen (competitor);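 note: clonal phage supernatants added to wells preincubated with CD28 antigen in blocking buffer versus blocking buffer alone, washed, bound phage read by HRP-conjugated anti-M13 antibody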
T1 construct: biotinylated and captured on neutravidin coated plates in the phage ELISA
T1 sequence (VH, as listed by the source, chain 1 of 2): as the sequence (VH, as listed by the source, chain 1 of 2) above
T1 sequence (VL, as listed by the source, chain 2 of 2): as the sequence (VL, as listed by the source, chain 2 of 2) above
Description: (§1) Clonal phage were harvested as crude supernatants and screened via standard ELISAs. […] Prior to the addition of clonal phage, wells were incubated with blocking buffer and CD28 antigen or blocking buffer alone. Without washing or aspirating, clonal phage supernatants were then added to the wells and incubated for a short time. Wells were then washed followed by detection of bound phage using a horse radish conjugated anti-M13 antibody.

[3] = molecular target: T1, anti-CD28 Fab (SEQ ID NOs: 202, 203); assay: phage binding ELISA; biotinylated Fab on neutravidin plate;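 note: clonal phage supernatants added to Fab wells pretreated with CD28 antigen or with blocking buffer only, bound phage read out via HRP-linked anti-M13 antibody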
Description: as §1

| Binder | Anti-CD28 Fab signal [1] | Anti-CD28 Fab signal in the presence of CD28 [2] | Anti-CD28 Fab (SEQ ID NOs: 202, 203) signal [3] |
| --- | --- | --- | --- |
| SCAAGAAYAWPWCL [Phage-1213] | 1.05 |  |  |
| YCEGHRPEYMAKCL [Phage-348] |  | 0.07 | 1.83 |
| YCEGHMSEYMAKCL [Phage-325] |  | 0.11 | 1.88 |
| YCEGHIPEYMAKCL [Phage-318] |  | 0.06 | 1.89 |
| YCEGHRSEYMAKCL [Phage-336] |  | 0.06 | 1.86 |
| TCSAGASYSWPYCM [Phage-1217] | 1 |  |  |
| YCDGHLPEYMGKCL [Phage-316] |  | 0.11 | 1.89 |
| YCEGHKPEYMQKCL [Phage-447] |  | 0.06 | 1.69 |
| YCEGHSYEYMWKCL [Phage-328] |  | 0.08 | 1.88 |
| YCEGHSPEYMWKCL [Phage-321] |  | 0.09 | 1.89 |
| YCEGHLPAYMQKCL [Phage-377] |  | 0.07 | 1.78 |
| YCEGHSPEYMRKCL [Phage-385] |  | 0.08 | 1.77 |
| YCEGHLPEYMMKCL [Phage-329] |  | 0.27 | 1.88 |
| YCDGHLPEYMRKCL [Phage-330] |  | 0.08 | 1.88 |
| YCEGHLPEYMRKCL [Phage-349] |  | 0.06 | 1.83 |
| YCDGHSWEYIQKCL [Phage-326] |  | 0.07 | 1.88 |
| YCDGHLAEYMPKCL [Phage-320] |  | 0.07 | 1.89 |
| YCDGHLAEYMVKCL [Phage-375] |  | 0.08 | 1.79 |
| YCDGHRPEYMEKCL [Phage-315] |  | 0.06 | 1.9 |
| MCTAGFSFNWPECL [Phage-1214] | 1.05 |  |  |
| WCSEVFSYPWPACL [Phage-1218] | 0.99 |  |  |
| YCDGHSPEYMPKCL [Phage-319] |  | 0.08 | 1.89 |
| YCDGHTGVYFYKCL [Phage-334] |  | 0.08 | 1.87 |
| YCDGHSALYMSKCL [Phage-333] |  | 0.08 | 1.87 |
| YCEGHSLEYMAKCL [Phage-327] |  | 0.08 | 1.88 |

| Binder | Anti-CD28 Fab signal [1] | Anti-CD28 Fab signal in the presence of CD28 [2] | Anti-CD28 Fab (SEQ ID NOs: 202, 203) signal [3] |
| --- | --- | --- | --- |
| YCEGHVAEYMLKCL [Phage-323] |  | 0.05 | 1.88 |
| YCEGHSAEYMQKCL [Phage-443] |  | 0.29 | 1.7 |
| YCEGHSQEYMQKCL [Phage-344] |  | 0.05 | 1.84 |
| YCAGHAPQYMEKCL [Phage-312] |  | 0.08 | 1.9 |
| SCAAGFHYEWPQCF [Phage-1211] | 1.06 |  |  |
| YCEGHSPLYMSKCL [Phage-331] |  | 0.09 | 1.87 |
| SCAAVFSFNWPECF [Phage-1216] | 1.01 |  |  |
| YCEGHSWEYIGKCL [Phage-332] |  | 0.07 | 1.87 |
| YCEGHLQEYMEKCL [Phage-317] |  | 0.1 | 1.89 |
| YCVGHLQEYMEKCL [Phage-389] |  | 0.06 | 1.76 |
| PCAAGAQWSWPMCL [Phage-1209] | 1.07 |  |  |
| YCDGHLAMYMDKCL [Phage-337] |  | 0.08 | 1.86 |
| YCDGHIDEYLQKCL [Phage-322] |  | 0.06 | 1.88 |
| TCAAGATWTWPTCM [Phage-1208] | 1.07 |  |  |
| YCEGHTSEYMNKCL [Phage-335] |  | 0.06 | 1.87 |
| SCAAGSTWAWPACL [Phage-1210] | 1.07 |  |  |
| LCDQFFHYNWPACL [Phage-1215] | 1.04 |  |  |
| YCAGHLPQYIAKCL [Phage-313] |  | 0.09 | 1.9 |
| YCEGHLSEYMSKCL [Phage-324] |  | 0.09 | 1.88 |
| SCTAVFSYALSPCF [Phage-1219] | 0.99 |  |  |
| YCDGHLKEYMAKCL [Phage-314] |  | 0.07 | 1.9 |
| YCDGHLSEYMFKCL [Phage-371] |  | 0.1 | 1.79 |
| YCDGHAIEYMAKCL [Phage-446] |  | 0.08 | 1.69 |
| SCTAGFRIHWPMCF [Phage-1212] | 1.06 |  |  |
